Source: PMC2920595 (Science (New York, N.Y.), 2009)

Target: T1, Ssh1p (large subunit, as in the purified Ssh1 complex) (Saccharomyces cerevisiae, UniProt P38353 1-490)
T1 sequence (looked up): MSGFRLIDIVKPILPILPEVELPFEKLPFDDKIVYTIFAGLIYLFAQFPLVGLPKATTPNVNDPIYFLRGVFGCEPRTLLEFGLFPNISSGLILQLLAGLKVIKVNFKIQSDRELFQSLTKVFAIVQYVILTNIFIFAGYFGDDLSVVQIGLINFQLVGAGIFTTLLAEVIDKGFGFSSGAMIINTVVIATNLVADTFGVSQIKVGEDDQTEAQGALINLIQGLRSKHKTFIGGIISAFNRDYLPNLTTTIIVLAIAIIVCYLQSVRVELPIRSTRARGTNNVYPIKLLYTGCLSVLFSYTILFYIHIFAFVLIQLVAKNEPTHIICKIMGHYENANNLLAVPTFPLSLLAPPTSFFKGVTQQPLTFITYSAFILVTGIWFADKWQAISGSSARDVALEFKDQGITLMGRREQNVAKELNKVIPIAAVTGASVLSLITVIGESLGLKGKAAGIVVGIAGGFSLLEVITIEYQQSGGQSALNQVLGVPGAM
Experiment: cryo-EM structure

- binding result: binds
B1: ribosomal protein rpL25 (yeast 60S subunit) (natural protein)
chain: not shown
